The target in assay [1] is T1, human IL-17A homodimer (human, UniProt Q16552 20-155, limits assumed).
T1 construct: Homodimer; also called huIL-17A
T1 sequence (looked up): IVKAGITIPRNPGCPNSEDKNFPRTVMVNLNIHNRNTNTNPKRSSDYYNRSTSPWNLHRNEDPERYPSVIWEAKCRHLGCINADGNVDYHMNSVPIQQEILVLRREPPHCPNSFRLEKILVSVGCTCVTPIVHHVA
In words: FLISA, cytokine on beads.

In assay [2] the target is T2, cynomolgus IL-17F homodimer (cynomolgus, UniProt G7P4V0 31-163).
T2 construct: range 31-163; Produced in house in PEAK cells, His-tagged, predominantly disulfide-linked homodimer; also called cyIL-17F; cnIL-17F; not shown: N-terminal His tag
T2 sequence: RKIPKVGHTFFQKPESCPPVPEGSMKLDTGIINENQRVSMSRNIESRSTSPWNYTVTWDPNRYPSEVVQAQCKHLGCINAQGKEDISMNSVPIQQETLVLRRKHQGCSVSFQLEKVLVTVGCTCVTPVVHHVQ
The experiment in a line: FLISA, cytokine on beads.

For assay [3], the target named is T1, human IL-17A homodimer. The experiment in a line: cell-based or functional assay.
The target of assay [4] is T3, human IL-17A/IL-17F heterodimer (human, UniProt Q16552 24-155; Q96PD4 31-163, limits assumed).
T3 sequence (looked up) 1: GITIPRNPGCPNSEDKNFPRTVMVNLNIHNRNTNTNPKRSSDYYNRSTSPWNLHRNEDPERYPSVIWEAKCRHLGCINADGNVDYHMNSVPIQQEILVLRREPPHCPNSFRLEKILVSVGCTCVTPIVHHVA
T3 sequence (looked up) 2: T2 sequence with E22G, T29I, K73R, H74N, L100V, V129I
In words: cell-based or functional assay.

Assay [5] addresses T4, cynomolgus IL-17A homodimer (cynomolgus, UniProt A0A2K5TTB0 20-155).
T4 sequence: T1 sequence (looked up) with T7A, P12S, N38S, I81V, N82K, P108R
The experiment in a line: cell-based or functional assay.

Assay [6] has as its target T1, human IL-17A homodimer. In words: cell-based or functional assay. The source holds these as a separate data set.
The target of assay [7] is T5, mouse IL-17A homodimer (mouse, UniProt Q62386 26-158, limits assumed).
T5 sequence (looked up): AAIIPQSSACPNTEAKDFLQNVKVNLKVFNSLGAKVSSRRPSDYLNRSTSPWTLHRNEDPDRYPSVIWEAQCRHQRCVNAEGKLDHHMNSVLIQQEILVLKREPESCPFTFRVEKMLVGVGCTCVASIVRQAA
The experiment in a line: cell-based or functional assay.

The target of assay [8] is T6, mouse IL-17A/IL-17F heterodimer (mouse, UniProt Q62386 26-158; Q7TNI7 29-161, limits assumed).
T6 sequence (looked up) 1: T5 sequence (looked up)
T6 sequence (looked up) 2: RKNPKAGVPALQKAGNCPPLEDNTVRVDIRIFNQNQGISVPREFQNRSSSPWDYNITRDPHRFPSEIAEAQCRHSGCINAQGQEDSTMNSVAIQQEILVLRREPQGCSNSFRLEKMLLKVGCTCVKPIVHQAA
In words: cell-based or functional assay.

The target of assay [9] is T7, mouse IL-17F homodimer (mouse, UniProt Q7TNI7 29-161, limits assumed).
T7 sequence (looked up): T6 sequence (looked up) 2
In words: cell-based or functional assay.

The target of the next assay is T8, rat IL-17F homodimer (rat, UniProt Q5BJ95 29-161).
T8 sequence (looked up): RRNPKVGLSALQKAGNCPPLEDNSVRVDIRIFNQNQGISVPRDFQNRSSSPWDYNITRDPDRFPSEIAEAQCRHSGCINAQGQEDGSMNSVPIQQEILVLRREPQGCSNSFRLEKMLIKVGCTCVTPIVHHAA
The experiment in a line: cell-based or functional assay.

Assay [10] has as its target T9, rat IL-17A homodimer (rat, UniProt Q61453 18-150, limits assumed).
T9 sequence (looked up): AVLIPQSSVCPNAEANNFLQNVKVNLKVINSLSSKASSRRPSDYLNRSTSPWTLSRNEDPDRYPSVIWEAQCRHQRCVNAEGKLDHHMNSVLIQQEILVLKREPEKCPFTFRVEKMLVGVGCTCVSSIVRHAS
The experiment in a line: cell-based or functional assay.

In assay [11] the target is T4, cynomolgus IL-17A homodimer. The experiment in a line: cell-based or functional assay. The source holds these as a separate data set.
Assay [12] has as its target cynomolgus IL-17A/IL-17F heterodimer (cynomolgus). In words: cell-based or functional assay.
In assay [13] the target is T2, cynomolgus IL-17F homodimer. In words: cell-based or functional assay.
Assay [14] deals with T5, mouse IL-17A homodimer. In words: SPR Biacore, mAb captured, cytokine as analyte. For orientation: In SPR one partner is held on a chip, and binding of the other changes the refractive index at the surface.
Assay [15] deals with T6, mouse IL-17A/IL-17F heterodimer. In words: SPR Biacore, mAb captured, cytokine as analyte.
For assay [16], the target named is T4, cynomolgus IL-17A homodimer. In words: SPR Biacore, mAb captured, cytokine as analyte.
The target in assay [17] is T1, human IL-17A homodimer. The experiment in a line: SPR Biacore, mAb captured, cytokine as analyte.
Assay [18] has as its target T7, mouse IL-17F homodimer. In words: SPR Biacore, mAb captured, cytokine as analyte.
For assay [19], the target named is T10, cynomolgus IL-17A/IL-17F heterodimer (cynomolgus).
T10 construct: Produced in house in PEAK cells; how the heterodimer was made is not described; also called cyIL-17A-F heterodimer; cynomolgus IL-17A/F
The experiment in a line: SPR Biacore, mAb captured, cytokine as analyte.

The target in assay [20] is T9, rat IL-17A homodimer. The experiment in a line: SPR Biacore, mAb captured, cytokine as analyte.

Numbering of substitutions follows the chain as printed.

B1: 41B10 antibody (antibody, IgG4, V domains shown)
VH: not shown
VL: DIQMTQSPSSLSASVGDRVTITCRASQGISSWLAWYQQKPEKAPKSLIYAASSLQSGVPSRFSGSGSGTDFTLTISSLQPEDFATYYCQQYNSYPITFGQGTRLEIK
notes: also called 41B10 IgG4
For B1, the binding result with human IL-17A homodimer [1] was “no binding”; in assay [2] it was “binds”. Further, in the assay with human IL-17A homodimer [3], the “IC50, IL-6 secretion by MEF cells, cytokine at 5 ng/ml” value (“IC50, IL-6 secretion … at 5 ng/ml” below) was more than 1000 nM. In addition, the “IC50, IL-6 secretion by MEF cells, cytokine at 17.5 ng/ml” value (shortened to “IC50, IL-6 secretion … at 17.5 ng/ml”) in assay [4] was more than 1000 nM.

B2: 39F12A antibody (antibody, V domains shown)
VH: QVQLVQSGAEVKKPGSSVKVSCKASGGTLSSYAFSWVRQAPGQGLEWMGGIIPFFGTTNYAQKFQGRVIITADESTNTAYMELSGLRSEDTAVYYCARDRDYYGLGSPFYYYGMDVWGQGTTVTVSS
VL: EIVLTQSPDFQSVTPKEKVTITCRASQSIGSSLHWYQQKPDQSPKLLIKYASQSFSGVPSRFSGSGSGTDFTLTINSLEAEDAATYYCHQSSSLPWTFGQGTKVEIK
Take B2: the results for the “IC50, IL-6 secretion by HFFF2 human fibroblasts, cytokine at 25 ng/ml” value (in assay [5]; with human IL-17A homodimer [6]) were 20 nM and 21 nM, respectively. For the same molecule, the “IC50, IL-6 secretion … at 5 ng/ml” value with mouse IL-17A homodimer [7] and with rat IL-17A homodimer [10] was more than 1000 nM each time. The “IC50, IL-6 secretion by MEF cells, cytokine at 50 ng/ml” value in assay [8] was found to be 170 nM; in the assay with mouse IL-17F homodimer [9] it was 6.2 nM. The “IC50, IL-6 secretion by MEF cells, cytokine at 25 ng/ml” value with rat IL-17F homodimer stood at 0.71 nM. Further, the “IC50, IL-6 secretion … at 17.5 ng/ml” value in assay [4] turned out to be 4.4 nM.

B3: 30D12BF antibody (antibody, V domains shown)
VH: QVQLVQSGAEVKKPGASVKVSCKASGYTFTSYDINWVRQATGQGLEWMGWLNPDSGVIRYAQKFQGRVTMTRDTSISTAYMELSSLRSEDTAVYYCAREWFGELPSYYFYSGMDVWGQGTTVTVSS
VL: EIVLTQSPATLSLSPGERATLSCRASQSVSSYLAWYQQKPGQAPRLLIYDASNRATGIPARFSGSGSGTDFTLTISSLEPEDFAVYYCQQRSNWPPTFGPGTKVDIK
On to B3, for which the “IC50, IL-6 secretion by HFFF2 human fibroblasts, cytokine at 25 ng/ml” value is 5.7 nM in [5] and 3 nM with human IL-17A homodimer [6]. In addition, the “IC50, IL-6 secretion … at 5 ng/ml” value in assay [11] is 2.5 nM; in the assay with human IL-17A homodimer [3], 1.6 nM; with rat IL-17A homodimer [10], more than 1000 nM. In addition, the “IC50, IL-6 secretion by MEF cells, cytokine at 25 ng/ml” value in [12] came to 13 nM; with rat IL-17F homodimer it was 30 nM; in assay [13], 130 nM. Besides, the “IC50, IL-6 secretion … at 17.5 ng/ml” value in assay [4] turned out to be 27 nM.

B4: 15E6FK antibody (antibody, V domains shown)
VH: EVQLVESGGGLVQPGRSLRLSCAASGFTFDDYAMHWVRQAPGKGLEWVSGINWSSGGIGYADSVKGRFTISRDNAKNSLYLQMNSLRAEDTALYYCARDIGGFGEFYWNFGLWGRGTLVTVSS
VL: not shown
notes: kappa light chain (captured by anti-human IgG-kappa); also called mAb 15E6FK; 15E6FK IgG1
For B4, the “IC50, IL-6 secretion by HFFF2 human fibroblasts, cytokine at 25 ng/ml” value in assay [5] was 0.76 nM; with human IL-17A homodimer [6] it was 0.83 nM. Also, the binding result with mouse IL-17A homodimer [14] and with rat IL-17A homodimer [20] was “no binding (tested: up to 90 nM cytokine)” each time. The Kd (usually the concentration at which binding is half-saturated) was 0.524 nM in [15]; 0.0104 nM in assay [16]; 0.0117 nM in the assay with human IL-17A homodimer [17]; 0.236 nM with mouse IL-17F homodimer [18]; 0.0394 nM in assay [19]. Besides, the “IC50, IL-6 secretion by MEF cells, cytokine at 50 ng/ml” value (in assay [8]; in the assay with mouse IL-17F homodimer [9]) was more than 1000 nM throughout. Besides, the “IC50, IL-6 secretion … at 5 ng/ml” value amounted to 0.04 nM in assay [11] and 0.18 nM with human IL-17A homodimer [3]. Also, in assay [12], the “IC50, IL-6 secretion by MEF cells, cytokine at 25 ng/ml” value stood at 0.08 nM.

B5: 5E12 antibody (antibody, IgG4, V domains shown)
VH: QVQLVQSGGGLVQPGRSLRLSCAASGFTFDDYAMHWVRQAPGKGLEWVSGISWNSGTIGYADSVKGRFTISRDNAKNSLYLQMNSLRAEDTALYYCAKELYISDWDSYSYGMDVWGQGTTVTVSS
VL: not shown
notes: also called Mab05; 5E12 IgG4
As to B5, the binding result with human IL-17A homodimer [1] was “no binding”; in assay [2], “binds”. The “IC50, IL-6 secretion … at 5 ng/ml” value with human IL-17A homodimer [3] was more than 1000 nM. Moreover, the “IC50, IL-6 secretion … at 17.5 ng/ml” value in assay [4] is more than 1000 nM.

These data come from patent publication US20130195872A1 (NOVIMMUNE S A, published 2013).
